Assays:
[1] = molecular target: recombinant human GM-CSF (rhGM-CSF) (human) (UniProt P04141); assay: SPR (BIAcore), rhGM-CSF immobilised, analyte 347 nM
[2] = molecular target: recombinant human GM-CSF (rhGM-CSF) (human) (UniProt P04141); assay: SPR (BIAcore), rhGM-CSF immobilised, analyte 3120 nM
[3] = molecular target: recombinant human GM-CSF (rhGM-CSF) (human) (UniProt P04141)
[4] = molecular target: recombinant human GM-CSF (rhGM-CSF) (human) (UniProt P04141); assay: SPR (BIAcore), kinetic analysis, rhGM-CSF immobilised
[5] = molecular target: recombinant human GM-CSF (rhGM-CSF) (human) (UniProt P04141); assay: SPR (BIAcore), rhGM-CSF immobilised, analyte 12.8 nM
[6] = molecular target: recombinant human GM-CSF (rhGM-CSF) (human) (UniProt P04141); assay: SPR (BIAcore), rhGM-CSF immobilised, analyte 1040 nM
[7] = molecular target: recombinant human GM-CSF (rhGM-CSF) (human) (UniProt P04141); assay: SPR (BIAcore), rhGM-CSF immobilised, analyte 38.5 nM
[8] = molecular target: recombinant human GM-CSF (rhGM-CSF) (human) (UniProt P04141); assay: SPR (BIAcore), rhGM-CSF immobilised, analyte 116 nM

B1: half-human SCA B32oN-45 (scFv)
scFv: ELQLVEQSGAALVKPGDSVKMSCKASGYPFTDYIVHWVKQSHGKSLDWIGYINPYSGDTKFNEKFKSKATLTVDKSSSTAYMEFSRLTSEDSAIYYCARSGLIAVYFDYWGQGTTVTVSSGGGGSGGGGSGGGGSELVMTQSPSSVSASVGDRVTIACRASQNIRNILNWYQQRPGKAPQLLIYAASNLQSGVPSRFSGSGSGTDFTLTINSLQPEDFATYYCQQSYSMPRTFGGGTKVEIKTGDYKDDDDK
For B1, the Ka [1] was 9.22e+07 M⁻¹, the Kd [1] was 10.8 nM and the koff [1] was 0.00477 s⁻¹. The kon [1] was 440000 M⁻¹ s⁻¹, the Ka [2] was 1.06e+07 M⁻¹ and the Kd [2] was 94.6 nM. The koff [2] was 0.00514 s⁻¹, the kon [2] was 54300 M⁻¹ s⁻¹ and the inhibition of rhGM-CSF dependent proliferation of TF-1 cells [3] was 6 nM. It also gave a Kd [4] of 50 nM, a Ka [5] of 3.25e+08 M⁻¹ and a Kd [5] of 3.07 nM. For the same binder, the koff [5] was 0.00384 s⁻¹, the kon [5] was 1.25e+06 M⁻¹ s⁻¹ and the Ka [6] was 1.89e+07 M⁻¹. For the same binder, the Kd [6] was 52.8 nM, the koff [6] was 0.0046 s⁻¹ and the kon [6] was 87100 M⁻¹ s⁻¹. It also gave a Ka [7] of 2.2e+08 M⁻¹, a Kd [7] of 4.55 nM and a koff [7] of 0.00444 s⁻¹. For the same binder, the kon [7] was 975000 M⁻¹ s⁻¹, the Ka [8] was 1.66e+08 M⁻¹ and the Kd [8] was 6.01 nM. It also gave a koff [8] of 0.00464 s⁻¹ and a kon [8] of 772000 M⁻¹ s⁻¹.

Reference: US9279017B2
